What was measured:
[1] = target: dopamine D2 receptor (rat, endogenous) (rat (endogenous in rat striatum)) (UniProt P61169); assay: FRET or BRET; in situ confocal FRET on rat brain sections, NAc (core and shell); anti-D1R-Alexa 488 (donor) and anti-D2R-Alexa 568 (acceptor) directly conjugated
[2] = target: dopamine D2 receptor (rat, endogenous) (rat (endogenous in rat striatum)) (UniProt P61169); assay: co-IP; rat NAc protein homogenates (300 ug), anti-D2R antibody overnight at 4 C, protein G/A, blot with anti-D1R; rats treated with saline or SKF 83959, with or without TAT-D1 (300 pmol, i.c.v.)

Sequence of UniProt P61169 (P61169 whole entry): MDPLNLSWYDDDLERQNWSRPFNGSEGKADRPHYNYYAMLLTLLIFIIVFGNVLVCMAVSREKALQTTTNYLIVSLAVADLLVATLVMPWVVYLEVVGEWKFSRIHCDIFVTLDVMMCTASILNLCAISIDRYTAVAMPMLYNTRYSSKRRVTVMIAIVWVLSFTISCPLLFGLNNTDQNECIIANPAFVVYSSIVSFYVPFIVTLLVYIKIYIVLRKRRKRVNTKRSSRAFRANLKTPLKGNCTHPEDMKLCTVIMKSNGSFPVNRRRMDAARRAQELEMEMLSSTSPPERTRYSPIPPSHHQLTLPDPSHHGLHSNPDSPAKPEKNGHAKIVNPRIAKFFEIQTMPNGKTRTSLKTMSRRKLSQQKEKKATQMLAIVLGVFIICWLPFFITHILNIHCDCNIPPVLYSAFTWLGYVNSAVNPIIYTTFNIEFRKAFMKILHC

FRET efficiency [1] | Substance | percent decrease of D1R co-immunoprecipitated with D2R [2]
0.36 | dopamine D1 receptor (rat, endogenous) (from UniProt P18901 1-446) | –
– | TAT-D1 peptide | > 50%

Reference: publication PMC5758537
